T1: APBA1_1, Q02410
T1 sequence (Q02410 651-752, limits assumed, looked up): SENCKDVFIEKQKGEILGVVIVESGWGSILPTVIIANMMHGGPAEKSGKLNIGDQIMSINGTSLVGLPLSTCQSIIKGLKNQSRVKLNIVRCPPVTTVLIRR

T2: TIAM2, Q8IVF5
T2 sequence (Q8IVF5 885-986, limits assumed, looked up): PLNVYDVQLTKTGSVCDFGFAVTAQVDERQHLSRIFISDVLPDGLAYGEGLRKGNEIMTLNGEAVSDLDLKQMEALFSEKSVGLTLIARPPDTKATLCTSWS

T3: HTRA4, P83105
T3 sequence (P83105 378-476, limits assumed, looked up): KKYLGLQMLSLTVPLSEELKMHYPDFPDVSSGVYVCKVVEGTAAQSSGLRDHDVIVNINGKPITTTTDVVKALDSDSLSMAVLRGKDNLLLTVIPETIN

T4: LRRC7, Q96NW7
T4 sequence (Q96NW7 1440-1537, limits assumed, looked up): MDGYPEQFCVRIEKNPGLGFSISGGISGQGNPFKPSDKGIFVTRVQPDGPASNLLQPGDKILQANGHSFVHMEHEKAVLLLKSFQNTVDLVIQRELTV

T5: PCLO, Q9Y6V0
T5 sequence (Q9Y6V0 4491-4600, limits assumed, looked up): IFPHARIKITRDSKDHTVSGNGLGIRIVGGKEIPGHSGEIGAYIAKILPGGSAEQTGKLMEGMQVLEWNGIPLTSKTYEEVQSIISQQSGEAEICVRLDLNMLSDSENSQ

T6: GRIP1_3, Q9Y3R0
T6 sequence (Q9Y3R0 247-346, limits assumed, looked up): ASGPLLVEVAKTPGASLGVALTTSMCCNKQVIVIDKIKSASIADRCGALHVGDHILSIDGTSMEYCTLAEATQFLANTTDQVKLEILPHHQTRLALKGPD

T7: LIN7A, O14910
T7 sequence (O14910 103-200, limits assumed, looked up): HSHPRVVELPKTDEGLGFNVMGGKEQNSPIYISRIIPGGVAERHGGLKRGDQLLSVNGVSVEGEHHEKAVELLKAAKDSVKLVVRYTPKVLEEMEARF

T8: PARD3B_1, Q8TEW8
T8 sequence (Q8TEW8 196-299, limits assumed, looked up): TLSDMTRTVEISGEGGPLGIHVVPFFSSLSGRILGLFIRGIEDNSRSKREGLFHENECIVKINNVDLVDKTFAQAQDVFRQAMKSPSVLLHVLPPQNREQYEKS

T9: APBA1_2, Q02410
T9 sequence (Q02410 742-832, limits assumed, looked up): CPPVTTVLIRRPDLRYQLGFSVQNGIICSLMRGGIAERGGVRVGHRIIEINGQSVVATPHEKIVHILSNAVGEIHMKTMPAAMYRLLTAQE

T10: GRIP1_4, Q9Y3R0
T10 sequence (Q9Y3R0 467-571, limits assumed, looked up): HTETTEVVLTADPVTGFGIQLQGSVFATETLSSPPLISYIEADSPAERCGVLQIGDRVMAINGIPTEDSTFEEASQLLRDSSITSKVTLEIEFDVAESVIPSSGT

T11: GRIP1_2, Q9Y3R0
T11 sequence (Q9Y3R0 145-248, limits assumed, looked up): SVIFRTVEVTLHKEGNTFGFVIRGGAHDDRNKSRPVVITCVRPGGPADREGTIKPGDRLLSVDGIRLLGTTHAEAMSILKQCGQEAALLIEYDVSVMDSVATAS


How the values were obtained:
Assay in all cases: holdup assay
Parameters in all cases: key: below the threshold = too weak to quantify, mostly under pKd 3.1 to 4
Settings in all cases: plain residues with an end cap or a label only (N-terminal biotin on a linker: ado-ado)
[1] = molecular target: T1, APBA1_1, Q02410
[2] = molecular target: Inadl_9, Q8NI35
Sequence of Inadl_9, Q8NI35 (Q8NI35 1530-1615): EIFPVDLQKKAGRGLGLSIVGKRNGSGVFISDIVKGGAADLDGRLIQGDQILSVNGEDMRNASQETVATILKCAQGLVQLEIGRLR

[3] = molecular target: T2, TIAM2, Q8IVF5
[4] = molecular target: PICK1, Q9NRD5
Sequence of PICK1, Q9NRD5 (Q9NRD5 17-115): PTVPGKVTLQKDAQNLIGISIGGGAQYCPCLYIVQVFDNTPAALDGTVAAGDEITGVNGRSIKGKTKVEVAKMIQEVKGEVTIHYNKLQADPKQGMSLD

[5] = molecular target: ARHGEF12, Q9NZN5-2
Sequence of ARHGEF12, Q9NZN5-2 (Q9NZN5 other isoform, or with tags, fused parts or gaps): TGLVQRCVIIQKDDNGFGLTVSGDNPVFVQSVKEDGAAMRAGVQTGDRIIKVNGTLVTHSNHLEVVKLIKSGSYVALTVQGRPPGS

[6] = molecular target: T3, HTRA4, P83105
[7] = molecular target: NOS1, P29475
Sequence of NOS1, P29475 (P29475 9-101): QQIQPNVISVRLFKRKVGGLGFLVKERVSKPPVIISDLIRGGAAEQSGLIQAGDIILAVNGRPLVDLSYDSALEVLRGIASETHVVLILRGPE

[8] = molecular target: T4, LRRC7, Q96NW7
[9] = molecular target: Inadl_2, Q8NI35
Sequence of Inadl_2, Q8NI35 (Q8NI35 238-335): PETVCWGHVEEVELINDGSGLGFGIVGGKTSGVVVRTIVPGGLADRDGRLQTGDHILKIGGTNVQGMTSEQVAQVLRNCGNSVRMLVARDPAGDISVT

[10] = molecular target: NHERF2_2, Q15599
Sequence of NHERF2_2, Q15599 (Q15599 142-238): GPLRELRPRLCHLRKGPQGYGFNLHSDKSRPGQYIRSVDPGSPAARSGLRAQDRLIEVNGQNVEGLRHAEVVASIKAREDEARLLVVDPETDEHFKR

[11] = molecular target: T5, PCLO, Q9Y6V0
[12] = molecular target: Inadl_8, Q8NI35
Sequence of Inadl_8, Q8NI35 (Q8NI35 1425-1530): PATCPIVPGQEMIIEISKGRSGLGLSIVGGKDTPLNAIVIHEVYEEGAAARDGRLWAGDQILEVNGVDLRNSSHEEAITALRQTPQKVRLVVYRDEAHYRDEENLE

[13] = molecular target: DLG5_1, Q8TDM6
Sequence of DLG5_1, Q8TDM6 (Q8TDM6 617-713): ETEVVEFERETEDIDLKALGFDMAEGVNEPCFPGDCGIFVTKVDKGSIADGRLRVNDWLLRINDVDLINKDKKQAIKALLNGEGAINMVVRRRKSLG

[14] = molecular target: FRMPD2_2, Q68DX3
Sequence of FRMPD2_2, Q68DX3 (Q68DX3 944-1038): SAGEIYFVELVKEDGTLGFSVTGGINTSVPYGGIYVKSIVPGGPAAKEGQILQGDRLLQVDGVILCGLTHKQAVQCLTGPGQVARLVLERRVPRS

[15] = molecular target: T6, GRIP1_3, Q9Y3R0
[16] = molecular target: GOPC, Q9HD26
[17] = molecular target: T7, LIN7A, O14910
[18] = molecular target: DLG2_2, Q15700
Sequence of DLG2_2, Q15700 (Q15700 189-283): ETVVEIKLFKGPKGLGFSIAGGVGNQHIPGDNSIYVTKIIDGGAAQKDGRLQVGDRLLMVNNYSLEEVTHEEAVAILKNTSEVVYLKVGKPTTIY

[19] = molecular target: GRIP2_3, Q9C0E4
Sequence of GRIP2_3, Q9C0E4 (Q9C0E4 238-339): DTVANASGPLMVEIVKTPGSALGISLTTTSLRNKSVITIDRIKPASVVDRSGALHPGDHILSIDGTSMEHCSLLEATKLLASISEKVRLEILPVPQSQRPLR

[20] = molecular target: T8, PARD3B_1, Q8TEW8
[21] = molecular target: PARD3_3, Q8TEW0
Sequence of PARD3_3, Q8TEW0 (Q8TEW0 582-685): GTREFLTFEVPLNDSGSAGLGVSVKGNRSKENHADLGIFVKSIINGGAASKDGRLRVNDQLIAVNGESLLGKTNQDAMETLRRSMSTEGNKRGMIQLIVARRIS

[22] = molecular target: MAGI2_2, Q86UL8
Sequence of MAGI2_2, Q86UL8 (Q86UL8 410-522): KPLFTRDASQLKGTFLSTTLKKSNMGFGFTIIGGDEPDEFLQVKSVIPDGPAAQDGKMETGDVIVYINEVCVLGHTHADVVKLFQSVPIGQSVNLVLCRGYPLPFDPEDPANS

[23] = molecular target: T9, APBA1_2, Q02410
[24] = molecular target: T10, GRIP1_4, Q9Y3R0
[25] = molecular target: PDZRN4_1, Q6ZMN7
Sequence of PDZRN4_1, Q6ZMN7 (Q6ZMN7 213-318): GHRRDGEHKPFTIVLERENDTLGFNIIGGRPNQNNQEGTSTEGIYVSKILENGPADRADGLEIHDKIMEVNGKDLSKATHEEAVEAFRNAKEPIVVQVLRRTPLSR

[26] = molecular target: T11, GRIP1_2, Q9Y3R0

Binder	pKd [1]	pKd [2]	pKd [3]	pKd [4]	pKd [5]	pKd [6]	pKd [7]	pKd [8]	pKd [9]	pKd [10]	pKd [11]	pKd [12]	pKd [13]	pKd [14]	pKd [15]	pKd [16]	pKd [17]	pKd [18]	pKd [19]	pKd [20]	other results
EDGESWEYQI [TRPV6, Q9H1D0]	below the threshold	3.83	3.95	below the threshold	below the threshold	below the threshold	below the threshold	below the threshold	3.97	3.67	below the threshold	below the threshold	below the threshold	below the threshold	below the threshold	below the threshold	below the threshold	below the threshold	below the threshold	3.85	pKd [21]: 5.35; pKd [22]: below the threshold; pKd [23]: below the threshold; pKd [24]: below the threshold; pKd [25]: below the threshold; pKd [26]: below the threshold
RQKEVRESKC [SCN8A, Q9UQD0]	below the threshold	below the threshold	4.02	4.18	3.64	below the threshold	below the threshold	below the threshold	below the threshold	3.57	below the threshold	3.95	below the threshold	below the threshold	below the threshold	below the threshold	below the threshold	below the threshold	below the threshold	below the threshold	pKd [21]: below the threshold; pKd [22]: 4.02; pKd [23]: below the threshold; pKd [24]: below the threshold; pKd [25]: below the threshold; pKd [26]: below the threshold
MQHQRTHTRV [ZSCAN30, Q86W11]	below the threshold	3.62	3.89	below the threshold	3.96	below the threshold	3.91	below the threshold	below the threshold	3.67	below the threshold	4.16	below the threshold	below the threshold	below the threshold	4.41	below the threshold	4.76	below the threshold	below the threshold	pKd [21]: below the threshold; pKd [22]: 5.42; pKd [23]: 3.52; pKd [24]: below the threshold; pKd [25]: below the threshold; pKd [26]: below the threshold
NIAESLESLV [PTPRZ1, P23471]	below the threshold	3.76	below the threshold	below the threshold	below the threshold	below the threshold	3.92	3.76	below the threshold	below the threshold	below the threshold	below the threshold	below the threshold	4.66	below the threshold	below the threshold	4.04	4.72	below the threshold	below the threshold	pKd [21]: 4.18; pKd [22]: 4.28; pKd [23]: below the threshold; pKd [24]: below the threshold; pKd [25]: 3.99; pKd [26]: below the threshold
VKRNSKETVV [MARCHF3, Q86UD3]	below the threshold	below the threshold	3.73	below the threshold	4.13	below the threshold	4.03	3.79	below the threshold	below the threshold	below the threshold	below the threshold	below the threshold	3.81	below the threshold	below the threshold	below the threshold	6.12	below the threshold	below the threshold	pKd [21]: below the threshold; pKd [22]: 5.26; pKd [23]: 3.88; pKd [24]: below the threshold; pKd [25]: below the threshold; pKd [26]: below the threshold

From publication PMC9482650, “Quantitative fragmentomics allow affinity mapping of interactomes” (Nature Communications, 2022)
